Measured values reported in the supplement of paper PMC9112550, “Optimization of the antimicrobial peptide Bac7 by deep mutational scanning” (BMC Biology, 2022).

test system: Escherichia coli TOP10; assay: shrunken log2 fold change of peptide-encoding DNA abundance (4.5 h post-induction vs induction); higher = less antimicrobial activity (less host growth inhibition); details: time post-induction: 4.5 h; library: site-saturation at positions 5, 18, 19, 20
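Note: peptides expressed intracellularly from a pBAD plasmid library in pooled LB shake-flask culture, induced with 0.3% L-arabinose, DNA abundance read by NGS, three biological replicates, DESeq2 with apeglm shrinkage.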

Sequence | shrunken log2 fold change
RRIRDRPPRLPRPRPRPDCMPRP | 0.781
RRIRYRPPRLPRPRPRPRWEPRP | -0.0931
RRIRFRPPRLPRPRPRPHCMPRP | -0.371
RRIRARPPRLPRPRPRPSSIPRP | 0.101
RRIRVRPPRLPRPRPRPNMRPRP | -0.124
RRIRLRPPRLPRPRPRPHVDPRP | 0.0142
RRIRIRPPRLPRPRPRPADGPRP | 0.276
RRIRIRPPRLPRPRPRPNHQPRP | -0.164
RRIRWRPPRLPRPRPRPAEGPRP | 0.000853
RRIRQRPPRLPRPRPRPGPTPRP | 0.0273
RRIRWRPPRLPRPRPRPDLSPRP | 0.000407
RRIRCRPPRLPRPRPRPKAIPRP | -0.0563
RRIRLRPPRLPRPRPRPGCQPRP | -0.00705
RRIRHRPPRLPRPRPRPYFMPRP | -0.489
RRIRVRPPRLPRPRPRPHPAPRP | 0.296
RRIRPRPPRLPRPRPRPAIIPRP | -0.112
RRIRMRPPRLPRPRPRPEWFPRP | 0.0369
RRIRFRPPRLPRPRPRPDNQPRP | -0.834
RRIRVRPPRLPRPRPRPVAHPRP | 0.0271
RRIRMRPPRLPRPRPRPICMPRP | 0.024

Sequence | shrunken log2 fold change
RRIRNRPPRLPRPRPRPHAQPRP | -0.835
RRIRVRPPRLPRPRPRPQPYPRP | -0.486
RRIRKRPPRLPRPRPRPNSLPRP | -0.00111
RRIRIRPPRLPRPRPRPCCMPRP | -0.614
RRIRARPPRLPRPRPRPIKRPRP | 0.0415
RRIRTRPPRLPRPRPRPEWYPRP | 0.135
RRIRQRPPRLPRPRPRPILVPRP | -0.0138
RRIRHRPPRLPRPRPRPPGSPRP | 0.0725
RRIRLRPPRLPRPRPRPGLDPRP | -0.0233
RRIRVRPPRLPRPRPRPRRTPRP | 0.115
RRIRMRPPRLPRPRPRPLCEPRP | 0.653
RRIRQRPPRLPRPRPRPWCDPRP | -0.191
RRIRWRPPRLPRPRPRPKSSPRP | 0.000999
RRIRWRPPRLPRPRPRPDYPPRP | -0.169
RRIRFRPPRLPRPRPRPAHCPRP | 0.0781
RRIRDRPPRLPRPRPRPYWVPRP | -0.129
RRIRTRPPRLPRPRPRPWMRPRP | 0.556
RRIRPRPPRLPRPRPRPTEEPRP | 0.551
RRIRARPPRLPRPRPRPMNFPRP | -0.0564
RRIRPRPPRLPRPRPRPNNFPRP | -0.364

Sequence | shrunken log2 fold change
RRIRARPPRLPRPRPRPPDDPRP | 1.2
RRIRARPPRLPRPRPRPLLNPRP | 0.373
RRIRYRPPRLPRPRPRPAKGPRP | -0.183
RRIRCRPPRLPRPRPRPDPHPRP | -0.015
RRIRDRPPRLPRPRPRPRNPPRP | -0.0578
RRIRERPPRLPRPRPRPFVNPRP | -0.561
RRIRFRPPRLPRPRPRPFCMPRP | -0.62
RRIRPRPPRLPRPRPRPETTPRP | -0.0108
RRIRPRPPRLPRPRPRPIEAPRP | 0.0713
RRIRERPPRLPRPRPRPLYCPRP | -0.444
RRIRIRPPRLPRPRPRPPSFPRP | -0.213
RRIRLRPPRLPRPRPRPPFHPRP | -0.0331
RRIRKRPPRLPRPRPRPDAHPRP | 0.534
RRIRVRPPRLPRPRPRPMEDPRP | 0.0593
RRIRIRPPRLPRPRPRPNMQPRP | -0.29
RRIRHRPPRLPRPRPRPNYWPRP | -0.358
RRIRVRPPRLPRPRPRPQVMPRP | -0.112
RRIRVRPPRLPRPRPRPRMDPRP | -0.371
RRIRCRPPRLPRPRPRPERGPRP | 0.472
RRIRCRPPRLPRPRPRPRMPPRP | 0.187
